The DeepSol protein solubility set

Test: soluble on expression in E. coli; label from the status in PepcDB or PDB records
With “MGQCLGTLCTVDSATDNISSVYQLAGPVAVKESPRIAERDPKVKISVNPEEENVERPCVLYSKSNEIIKKPDIFEEIYKRTPITLSNNGRIDVAELPAGQRVIEVENNEVRDKYKKTLYEIRRKCRELQNLGAEDEETGEIIDTLLILYKDFFLLTTWKIDKYAQLRKNAAVQAYNSLPKLRADPAEFRCHVEFQYRVANELWEHFKETYIHKYEACNWAERAKVKEWDLLDSQVQTPNVEWDYLGAHGYI” the “soluble on expression in E. coli” value was “not soluble”. With “MGRAFEYRRAAKEKRWDKMSKVFPKLAKAITLAAKDGGSEPDTNAKLRTAILNAKAQNMPKDNIDAAIKRASSKEGNLSEITYEGKANFGVLIIMECMTDNPTRTIANLKSYFNKTQGASIVPNGSLEFMFNRKSVFECLKNEVENLKLSLEDLEFALIDYGLEELEEVEDKIIIRGDYNSFKLLNEGFESLKLPILKASLQRIATTPIELNDEQMELTEKLLDRIEDDDDVVALYTNIELEHHHHHH” the “soluble on expression in E. coli” value was “soluble”. In the case of “MGRIIILDENTANQIAAGEVVERPASVVKELVENSIDAGSTNISVEINNGGISFIKVVDNGSGIEEDDIEIAFERHATSKIRRASDLEAITSLGFRGEALASIASVSTVEVTSRPAHREYGRYVKIQGGTVLESGQVGCPAGTTFIVRDLFYNTPARFKFLKKDSTEAGYVSDIVSRIALGNPDISFRLINNKNTVIHTPGNNDLLSTIYSLYGKETAKECMEISYEDETVKITGYAGSPEIARANRNYQSIYLNKRYIKNKVISSAIDEAYKTYLMKNKFAFIVLYIELNPLLVDVNVHPTKMEVRFSREQEIFRAVYHAVNNALLSKTHIRNVSLKDSPKNYFKFEQSSKKEADYVQQRLDTDRKFSGYNYDEDFKTEKTNTSKSTWENLIVKESANINKRKDETIDEVINKNEVGDKNKVISEDEVINKDEVINKDKVINKDKVINKGEVVNKVNVNEVENESVDNLINGQISGLVNWAINEPINKTNDKLIEKSDGTALKGTGEECYNFDKSGYDNILKDVSDKPKDNRNDVDNNADTNFEKIRDGKDTRPQQDIERNVFLDARIIGQVFSTYILLQNEDDLIIIDQHAAHERIRFEELKEKYARNESLAQYLLTPVVIELTNQEIVFLEEEKELFNKLGFIFESFGNNSIILRSVPIPDEGVGVKEAFLEVVDFLMSKGRKYDKIIEEDALYQIACKSAVKANKKLDEIEIKAILDKLNMLQNPYTCPHGRPTVVKITKYEFEKMFKRIV”, the “soluble on expression in E. coli” value is reported as “not soluble”. With “MGRIISSYIFPHPPLIVPEIGKGDEKGAIKTIEACEKAAEQIRKEKPSTIILTTSHAPLFEDYIFINDHKTLKGNFSRFGARKVELGFENNLKMVESIIEFAKKEGFDAGGISEGIGRRYGISGELDHGALVPLYYISRVYSDFKLVHVAMSTLTLEEHYKFGMCIGEAVRNSDEDVVFVASGDLAHRLTSDGPYGYNKHAPEFDELLVKSIEKDDIDRILDIDDKLRDEAAECGLRSFVIMLGALDGYSVVPEVYSYEGPFGVGYMVARIGVGAMDSSRRIIENRRNKRKKSTDPYVSLAKRALEAYVTEGRVLDDYSGLPEEMLNSRAGTFVSIKKKGELRGCIGTIGPTRKNIASEIVHNAISAGTSDPRFYPVKPYELDELEYSVDVLMEPEEINSMDELDVVKYGVIVRAGRRTGLLLPNLENVNTVEQQVSIALQKAGISPNEKYTMERFEVIRHK” the “soluble on expression in E. coli” value was “not soluble”. For “MGRIKQMTPNVMRLLKACFVEQIPDEVCDEFHLKKDTEHMILITKDGGMPISKIKPLSDSQVLSVLSQILLSLYIGKRELQFSHNDLNPGNLLISETKKKSISYKKDGKSIKIKSHGRFLTLIDLQKSTFDEKEDKGLDCWKLNSRVRDQFLPLVKEDTKKILAKVAEEIEKTTILDWKLPGMLPIQ”, the “soluble on expression in E. coli” value was “not soluble”. For “MGRSNKHDVTSTTPSLAIVQANPHPHKDVVPTEAPIVSSYNDHIRPLLDTVDKLRNLNVMQEGIQLPTIVVVGDQSSGKSSVLESLAGISLPRGQGICTRVPLVMRLQRSRSPEPEIWLEYGDKIVPTDEEHIAQTICAATDVIAGSGKGVSDTPLTLHVKKAGVPDITMVDLPGITRVPVNGQPENIYEQISRMVMKYIEPQESIILNVLSATVDFTTCESIRMSKQVDKTGERTLAVVTKADMAPEGLLQKVTADDVSIGLGYVCVRNRIGEETYEEARMQEELLFRTHPMLSMINDEIVGIPVLAQKLTQIQGMMISRCLPEIERKINVKMEISVLEFNKLPIVMASTGEALMSLMDIIGSAKESLLRILVHGDFSEYPNDQKMHCTARLAEMLNRFSDNLQAQPQAVTEEFLMDEIKVLEERKCIGLPNFIPRSSFLAILSQHVDGIQDKPVEFIKEIWDYIEVVLSSVITTYSDNFPQIQSSIKRAGRNLMSRTKERSKTTSQQNFINSVLHDENKPENFALPGFGDVKISHLRKYHAHLLQQAFDMKMRITSYWTIVLRRVVDNLALYLQFSVKNLVNSQFQKEIVAEMVDPRAGGGIDRMLEESPSVASKREKLKNSLKLLKESKDVVAAIVDQNSVYADR”, the “soluble on expression in E. coli” value was “soluble”. In the case of “MGSAEQACGCKGARFCALCETTERVKKLRVVEDKHVNYKVFIYDHIRQIAIPTTNLNSQSSLEDIIDESTSCQSVSTDGSIEIDGLTLIHNFLSESEESKILNMIDTVEWAQSQSGRRKQDYGPKVNFKHKKVKTDTFVGMPEYADMLLNKMSEYDVKKLGNYQPFEMCNLEYEEVKKSAIEMHQDDMWIWGNRLIRYEFLFKKVLFN”, the “soluble on expression in E. coli” value is reported as “soluble”. For “MGSDKIHHHHHHAACQGKPLPNTAMHSDAPTEWSFNFFTPKALPAVVTFAAILDVDGNDYRFNTLNSTPDLPGVIGEWNDKDRAPVGYWNHVKRPPRHIIFCWDSIIDKKVYETHLTIPKSVLEQMLMPSKYKDYRGRIAWYNRMQIGLAPEGKVAVWLQGSGSESNYRVTPSVLKTVSGNKLDICKDITRSDFSYGYDKDIIDFIKGKHYPYGNW”, the “soluble on expression in E. coli” value was “not soluble”. For “MGSDKIHHHHHHAADRPTQPVRTEVYRLERLDSVLLVDLAVDLTGVHLAPDCTVYLFPLLASENTGDSLSLPPIVLNGPQSDLMYRRRRALGTTSGLEKITPYTVLREGDHALPRIHYRTEVPYAAWMDDVKVWMRDTNCNCDARLVPFAMHTEHIPPLVVERVDTIVIHDTIRLASVASGQSTVASDIPLRKKVTRIQAGYEADIYFPTNEMRILPDHELNRASWMHFVNQVDSIEQDNRNSISGVTVTGYSSPEGYTSNNERLAEKRAKALQAFLENKYGERMEVAVEWVGEDWKQFEKDIEVSDLPERNEILSILRTVSDSNQRKSRLKALNKGKTFGILLREYFPKLRRVSCRIRYVK”, the “soluble on expression in E. coli” value was “not soluble”. With “MGSDKIHHHHHHAALSTNTVAVEKAPDMVAVMGGEPEVMLDKALEALGGIGNFVKKGQKIVIKPNIGWDRSPELAGNTNPKLVKALVKKCLEAGASKVTVFDHTCDNWQKCYETSGIAEAVKEAGGIIMPANDEKYFKEVSIPGGVNLKSAKIHEALIEADAWINVPVLKNHGGAKMTCAMKNYMGIVWDRRFFHQNDLQQCIADICTWQKKPVLNIVDAYRIMHQNGPQGKSAADVATLKSLIASPNIVAIDTAALRLFNQVKKLDMAAVGHIGKGEALKLGTTNLDNVTIKRIKI” the “soluble on expression in E. coli” value was “not soluble”. In the case of “MGSDKIHHHHHHACSISYKFNGSSIDYTKVKTISFENFPNRSAGFVWGPMENMFNTALQDIYMQQTRLKQVKRSGDLQLSGEITNYEAFNKGIGSDGYSSMVELRMTVRVNFVNSSNPTENMNGQQFSASREYNSNQQLSAVQDELVNQMIKEIVEQIFNATVANW”, the “soluble on expression in E. coli” value is reported as “not soluble”. With “MGSDKIHHHHHHAETVVVRFGLFAESIPVADLQKAAETGEFPSSLNLFTRRLSEQQRRTLIGALRMRVPLNVVTISRLLNTQIGTTILNDLSRAVVRKDQSGAKALRASLVLGSTAPQGLSILSFITAYPSRSLEINLPQAFQVAGSLNNAFWRTQQFMLAISPQLDPAKPQISIPFDPSQPGNAQVQVLKLNLNDQKRNRQIPADIYWSTSATQEKPVIIYSHGMGSVRTDLHYLAEHLASHGYIFVALEHPGSNQANTDLATKGKVRLLEPQEFLNRPQDVSFVLDVLEKLNQTTGNPLQGKLATNNTMVIGYSFGGGTALSLAGAELQIAGIRERCQNKLTILSLGETIQCVAQELPEKTYQLRDNRIKQAIALTPTTSLMFGETGLTKVQIPTLIVAASADKTTPALTEQILGFSKIPSPKWLVGIIGGTHLSVKDPSTTLDQVDKPNTPLTGGEIVGEQATDVRQFVKAIALAMVAQLTPEAEKYAVFLTPDYAQLASTESFPFRIVTEIPPQAIPIGKQ” the “soluble on expression in E. coli” value was “not soluble”. With “MGSDKIHHHHHHAGFGVAGLSEKTYKTVLNTNMGALYSPSLSAQVVDGACYLINYELDLNSPENANAATNGYLTATISVADEITKGQPVFYNVPDSASLLQNEIPVKNLFSNGDYGVYVDGYLFFFITMDMFKDQKNSYTLYWDRSKEPTMVDNVPTYDLFLRVAKVADGTGSAASSIGEVRAFNVKSVLESVNSAEANKDSKSFNLKVNYLNTINEKDSTDLKWASYTVLFQVVKNS” the “soluble on expression in E. coli” value was “not soluble”. In the case of “MGSDKIHHHHHHAIVSAKWERTSSLQGIQLKQASIEGLFGGKQSISILTIGRAEGYTAFIATTDSLTTTSQLAEQSRSSAAINGSYFSIKEGFSTCYLRKNEAVIDTTTTEERHLRVNGAVHMVDNNIRIIPWNDENEKKGFPLDGDILASGPLLMQDGKTCDFTTIDREFSETRHPRSAIALTKEGDIMLVAVDGRAEGHADGMSIAELAYLLRILKAHCALNLDGGGSTTLWVNGQVVNHPSDNKKFDNKGERKVHNIIAVRRLTNP”, the “soluble on expression in E. coli” value is reported as “not soluble”. With “MGSDKIHHHHHHANDETIEINYGESISLSAVAGKTTRTGSEATTTNSIRNFHVLAFTQGATYMDCDVRKQGNVWSYGDTKFWPETDVDFYSYSPMNTQNGNVSIKVEGDKKIANYNVPGDEDLLYALNQAEKKNEHEGERPVMVNFRHALSQIVFRIRNTSSNLTVFVDAVKVEGIEKQGTFFWPTLSTTTQWQGTEKDTETDNSWGRWNIVYNKENAKQNNYAAEIIPIMEQGFVGSIDASVRDLTVKTDNGYKGLLLLPQTLNPWITKTGGTDENPEYKITGTARVLVKCKLVDTVSNVQLWPNTNSHEETTWVGVSLVGEPKDINGKTEQVWKQGKRYVYTLIFGEGGGFNPDPDPENPDPEPVLVPITFAVTVDDFVEYPQDLDASVPNSNSGQ” the “soluble on expression in E. coli” value was “not soluble”. For “MGSDKIHHHHHHAQESLFLKDPSTKNKLLQLDLDVGTCFDLAYRGKGNMYTAMSDRKSVFPAINLRLQHFFSRKWGWYTNIRLGIPVKYRRDCYTELVHAVEADYYVNNLIPGTQKPDVNPCLDFGVAYRFENSHWAFYPRLGIGVNSISYQRVCAELKKKGGNELYKIEYRGDDESNYGSESIDAFILSAGITANYKLSRNCFLLLNVNYIQPLGRFTYRKYVTDLYTGEKVERGVYKSSTFARDLNVSVGFGFPFYLGRKTNRKSSHRERTRQLMEQKRKTYGLFPGNK”, the “soluble on expression in E. coli” value was “not soluble”. For “MGSDKIHHHHHHAQQPVELPLWPDGAPNSNGLTGGEKEVSPHRLSNVTAPTITVYRAPQPNGMAVIMCPGGGYSRLAMDHEGHDMASWFCGQGITYVVLKYRMPNGHCEVPLSDAERAIRIVREHAGEWNIHPRKIGIMGASAGGHLASTLATHYSAASRPDFQILLYPVVTMTQSTHGGSRKELLGGNPTAEQEVLFSNELQVTSDTPQAFIVLSSDDGAVPPSNGVNYYLALQKNNVPASLHVYPTGGHGWGFRDNFKYKQQWTQELEKWLREGVVFPKETAPMLRIGKTYLGTKYVANTLDQGTEEKLVILPQTVDCLTFVEYTLAQAMGSSFADNLQKIRYRDGVIDGYTSRLHYTSDWIENGVRQGFLEDVTAQNSTQTTKLSLSYMSTHPQKYRQLADSPENVKRMAEHEKALSGKKVHWLPKGKLPDAGLPWIMDGDIIAITTNLPGLDVAHVGMAEYINGKLHLLHASSTLGKVVVSEEPLSQMLRNNKSWSGIRVVRMSHP”, the “soluble on expression in E. coli” value was “not soluble”.
